From patent publication US20210147558A1 (OSE IMMUNOTHERAPEUTICS, published 2021)

Biological target: T1, human CMKLR1 (Chemokine-like receptor 1) (human, UniProt Q99788 1-373)
T1 sequence: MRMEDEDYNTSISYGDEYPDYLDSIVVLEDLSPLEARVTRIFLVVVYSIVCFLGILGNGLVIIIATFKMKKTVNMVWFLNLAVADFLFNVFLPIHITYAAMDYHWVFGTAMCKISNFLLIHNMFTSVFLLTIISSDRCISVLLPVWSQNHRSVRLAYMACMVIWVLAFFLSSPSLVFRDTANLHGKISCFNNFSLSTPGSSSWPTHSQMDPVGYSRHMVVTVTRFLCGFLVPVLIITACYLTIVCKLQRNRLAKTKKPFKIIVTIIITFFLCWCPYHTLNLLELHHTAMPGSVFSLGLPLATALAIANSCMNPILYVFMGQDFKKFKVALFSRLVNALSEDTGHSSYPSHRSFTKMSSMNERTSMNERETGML
Test: cell-based or functional assay

B1: anti-CMKLR1 antibody clone 2G1 (antibody, V domains shown)
VH: EVQLVASGGGLVQPGGSLKLSCAASGFTFSSYGMSWVRQTPDRRLELVATINRYGGSTYYPDSVKGRFTISRDNAKNTLYLQMSSLKSEDTAMYYCPRLIYYGNEGDSWGQGTTLTVSS
VL: QIVLTQSPAIMSASPGEKVTMTCSASSSVSFMHWYQQKSGTSPKRWIYDTTKLTSGVPARFSGSGSGTFYSLTISSMEAEDAATYYCQQWNSKPPLTFGPGTKLELKR
IC50 (read off the curve) of the partial decrease (about one fifth); 2G1 with chemerin 6 nM (circles), beta-arrestin recruitment, CHO-K1 CMKLR1 cells: ~10 nM | IC50 (read off the curve) of the partial decrease (about one third); 2G1 with chemerin 2 nM (diamonds), beta-arrestin recruitment, CHO-K1 CMKLR1 cells: ~20 nM
